Reference: patent publication US20200392198A1 (UNIVERSITY OF COPENHAGEN, published 2020)
Substitutions are numbered along the chain they refer to. Ends that are not written are not given here. * marks the point of attachment. Palmitoyl = CCCCCCCCCCCCCCCC(=O)*; Lauroyl = CCCCCCCCCCCC(=O)*

T1: human GIP receptor (human, UniProt P48546 22-466)
T1 sequence (looked up): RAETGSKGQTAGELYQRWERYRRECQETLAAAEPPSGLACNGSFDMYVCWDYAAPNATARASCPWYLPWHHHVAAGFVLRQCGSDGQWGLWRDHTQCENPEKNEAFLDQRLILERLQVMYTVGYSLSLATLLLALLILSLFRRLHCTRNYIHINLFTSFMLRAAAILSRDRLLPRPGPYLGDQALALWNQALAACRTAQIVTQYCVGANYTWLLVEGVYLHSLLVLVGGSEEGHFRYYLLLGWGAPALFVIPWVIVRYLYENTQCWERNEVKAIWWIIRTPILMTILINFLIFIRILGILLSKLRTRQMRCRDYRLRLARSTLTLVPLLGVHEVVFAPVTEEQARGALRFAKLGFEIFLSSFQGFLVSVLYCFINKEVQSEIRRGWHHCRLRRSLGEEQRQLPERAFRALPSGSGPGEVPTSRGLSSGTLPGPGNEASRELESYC

T2: human GLP-2 receptor (human, UniProt O95838 1-553)
T2 sequence (looked up): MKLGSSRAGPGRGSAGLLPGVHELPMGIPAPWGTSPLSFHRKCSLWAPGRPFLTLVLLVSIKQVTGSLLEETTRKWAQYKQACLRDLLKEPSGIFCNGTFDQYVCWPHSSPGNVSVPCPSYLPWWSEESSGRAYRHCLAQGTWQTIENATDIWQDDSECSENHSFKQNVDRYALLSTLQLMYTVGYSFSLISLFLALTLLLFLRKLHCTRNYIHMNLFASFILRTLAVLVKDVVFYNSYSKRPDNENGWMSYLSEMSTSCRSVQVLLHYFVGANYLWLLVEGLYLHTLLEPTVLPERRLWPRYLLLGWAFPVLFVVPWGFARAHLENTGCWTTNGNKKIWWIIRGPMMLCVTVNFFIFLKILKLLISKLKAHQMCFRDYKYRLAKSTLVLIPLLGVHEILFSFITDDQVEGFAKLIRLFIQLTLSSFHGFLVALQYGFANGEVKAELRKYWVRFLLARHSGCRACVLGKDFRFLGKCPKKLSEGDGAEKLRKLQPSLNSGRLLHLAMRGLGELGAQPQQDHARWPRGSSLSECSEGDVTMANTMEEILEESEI

B1: GIP-GLP-2 co-agonist 22 (peptide)
peptide: HADGTFSSDYSTILDNLAARDFINWLIQTKITD
modifications: not fully specified (residue 1, N-terminus); also: C16 acyl group on His 1 (attachment site not given here)
B2: GIP-GLP-2 co-agonist 23 (peptide)
peptide: HADGTFSSDYSTILDNLAARDFINWLIQTK(Palmitoyl)ITD
B3: GIP-GLP-2 co-agonist 24 (peptide)
peptide: B1 peptide with S7I, T12K, D33K
B4: GIP-GLP-2 co-agonist 25 (peptide)
peptide: B1 peptide with S7I, L14K, D33K
B5: GIP-GLP-2 co-agonist 26 (peptide)
peptide: B1 peptide with S7I, N16K, D33K
B6: GIP-GLP-2 co-agonist 27 (peptide)
peptide: B1 peptide with S7I, A18K, D33K
B7: GIP-GLP-2 co-agonist 28 (peptide)
peptide: B1 peptide with S7I, R20K, D33K
B8: GIP-GLP-2 co-agonist 29 (peptide)
peptide: B1 peptide with S7I, D33K
modifications: not fully specified (residue 1, N-terminus); also: C16 acyl group on His 1 (attachment site not given here)
B9: GIP-GLP-2 co-agonist 30 (peptide)
peptide: HADGTFISDYSTILDNLAARDFINWLIQTK(Lauroyl)ITK

Target: T1, human GIP receptor
Assay: cell-based or functional assay

First: B1
Second: B2
The “EC50 (cAMP)” value of the first is 1.9-fold lower: 0.41 nM for the first, 0.76 nM for the second.

First: B3
Second: B4
The “EC50 (cAMP)” value of the first is 2.9-fold lower: 0.15 nM for the first, 0.44 nM for the second.

Compared with B5, B6 is 18-fold higher in “EC50 (cAMP)” value: 0.03 nM for the first, 0.55 nM for the second.

Compared with B7, B8 is 9.1-fold higher in “EC50 (cAMP)” value: 0.2 nM for the first, 1.82 nM for the second.

For B9, the “EC50 (cAMP)” value was 0.63 nM.

Compared with B1, B2 is lower in “Emax (10 µM), % of native GIP” value: 100% for the first, 81% for the second.

Compared with B3, B4 is lower in “Emax (10 µM), % of native GIP” value: 100% for the first, 92% for the second.

B5 and B6 are the same in “Emax (10 µM), % of native GIP” value: 100% for the first, 100% for the second.

First: B7
Second: B8
The “Emax (10 µM), % of native GIP” value of the first is lower: 100% for the first, 115% for the second.

For B9, the “Emax (10 µM), % of native GIP” value was 100%.

First: B1
Second: B2
The “fold (EC50 vs native GIP)” value of the first is lower: 4.6 fold for the first, 8.5 fold for the second.

Going from B3 to B4, the “fold (EC50 vs native GIP)” value rises from 1.7 fold to 4.9 fold.

First: B5
Second: B6
The “fold (EC50 vs native GIP)” value of the first is lower: 0.34 fold for the first, 6.2 fold for the second.

First: B7
Second: B8
The “fold (EC50 vs native GIP)” value of the first is lower: 2.2 fold for the first, 20 fold for the second.

In the case of B9, the “fold (EC50 vs native GIP)” value is reported as 7.1 fold.

Compared with B1, B2 is higher in “logEC50 (cAMP)” value: -9.39 for the first, -9.12 for the second.

Compared with B3, B4 is higher in “logEC50 (cAMP)” value: -9.82 for the first, -9.36 for the second.

First: B5
Second: B6
The “logEC50 (cAMP)” value of the first is lower: -10.5 for the first, -9.26 for the second.

Compared with B7, B8 is higher in “logEC50 (cAMP)” value: -9.7 for the first, -8.74 for the second.

For B9, the “logEC50 (cAMP)” value was -9.2.

Target: T2, human GLP-2 receptor
Assay: cell-based or functional assay

B1 and B2 are within 1.5-fold of each other in “EC50 (cAMP)” value: 1.3 nM for the first, 1.4 nM for the second.

First: B3
Second: B4
The “EC50 (cAMP)” value of the first is 4.7-fold lower: 0.74 nM for the first, 3.5 nM for the second.

First: B5
Second: B6
The “EC50 (cAMP)” value of the first is 1.8-fold lower: 0.31 nM for the first, 0.56 nM for the second.

Compared with B7, B8 is 14-fold higher in “EC50 (cAMP)” value: 1.2 nM for the first, 17 nM for the second.

B9 was tested, and the “EC50 (cAMP)” value was 36 nM.

Going from B1 to B2, the “Emax (10 µM), % of native GLP-2” value falls from 72% to 57%.

First: B3
Second: B4
The “Emax (10 µM), % of native GLP-2” value of the first is higher: 96% for the first, 92% for the second.

B5 and B6 are the same in “Emax (10 µM), % of native GLP-2” value: 100% for the first, 100% for the second.

First: B7
Second: B8
The “Emax (10 µM), % of native GLP-2” value of the first is higher: 112% for the first, 82% for the second.

In the case of B9, the “Emax (10 µM), % of native GLP-2” value is reported as 73%.

First: B1
Second: B2
The “fold (EC50 vs native GLP-2)” value of the first is lower: 1.1 fold for the first, 1.2 fold for the second.

Compared with B3, B4 is higher in “fold (EC50 vs native GLP-2)” value: 0.62 fold for the first, 2.9 fold for the second.

First: B5
Second: B6
The “fold (EC50 vs native GLP-2)” value of the first is lower: 0.26 fold for the first, 0.47 fold for the second.

First: B7
Second: B8
The “fold (EC50 vs native GLP-2)” value of the first is lower: 0.98 fold for the first, 14 fold for the second.

In the case of B9, the “fold (EC50 vs native GLP-2)” value is reported as 30 fold.

B1 and B2 are within 0.2 log units of each other in “logEC50 (cAMP)” value: -8.88 for the first, -8.85 for the second.

Going from B3 to B4, the “logEC50 (cAMP)” value rises from -9.13 to -8.46.

First: B5
Second: B6
The “logEC50 (cAMP)” value of the first is lower: -9.51 for the first, -9.25 for the second.

Going from B7 to B8, the “logEC50 (cAMP)” value rises from -8.93 to -7.76.

For B9, the “logEC50 (cAMP)” value was -7.44.
